According to patent US20210332142A1 (Genentech, published 2021):
Like-named read-outs stand apart in the source and are kept apart here.

T1: recombinant cyno Tie2 extracellular domain (cynomolgus monkey, UniProt Q02763 23-748 (human entry))
T1 construct: also called Recombinant cyno Tie2 ECD; cy Tie2
T1 chain: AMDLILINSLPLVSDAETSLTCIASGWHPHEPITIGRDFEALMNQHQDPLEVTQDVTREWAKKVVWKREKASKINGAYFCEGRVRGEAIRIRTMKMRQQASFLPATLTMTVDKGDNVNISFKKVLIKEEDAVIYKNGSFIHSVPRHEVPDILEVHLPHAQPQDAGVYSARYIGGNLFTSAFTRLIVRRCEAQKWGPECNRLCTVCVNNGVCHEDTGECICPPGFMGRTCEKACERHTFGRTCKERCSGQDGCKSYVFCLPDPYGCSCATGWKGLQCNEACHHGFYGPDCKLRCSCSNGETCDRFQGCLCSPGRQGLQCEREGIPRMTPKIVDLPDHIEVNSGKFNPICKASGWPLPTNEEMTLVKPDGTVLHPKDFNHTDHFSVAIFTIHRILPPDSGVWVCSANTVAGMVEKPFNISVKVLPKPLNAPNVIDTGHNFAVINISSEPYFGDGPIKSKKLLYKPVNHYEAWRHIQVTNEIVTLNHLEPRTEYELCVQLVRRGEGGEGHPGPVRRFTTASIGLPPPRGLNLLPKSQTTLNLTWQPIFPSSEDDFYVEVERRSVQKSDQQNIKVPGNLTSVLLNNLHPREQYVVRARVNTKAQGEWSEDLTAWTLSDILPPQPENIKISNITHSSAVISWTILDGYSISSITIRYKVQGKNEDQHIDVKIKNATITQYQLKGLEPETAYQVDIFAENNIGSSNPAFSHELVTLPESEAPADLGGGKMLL


Key:
[1] = target: T2, recombinant human Tie2 extracellular domain (human, UniProt Q02763 23-748); assay: SPR, IgG captured, 37C
T2 construct: whole entry named; also called Recombinant human Tie2 ECD; hu Tie2
Method: (§1) A human antibody capture chip was prepared using a Series S CM5 chip (GE Life Sciences), a human antibody capture kit (GE Life Sciences) and an amine coupling kit (GE Life Sciences). Antibodies diluted to 5 μg/ml in running buffer (10 mM HEPES, 150 mM NaCl, 0.05% Tween 20, 1 mM EDTA, pH 7.4) were non-covalently captured using a contact time of 20 seconds and a flow rate of 10 μl/minute. Binding to 300 nM and 1500 nM recombinant Tie2 was analyzed at 37° C. using a Single Cycle Kinetics method with a contact time of 60 seconds, a dissociation time of 120 seconds and a flow rate of 50 μl/min. Between cycles, the surface was regenerated by a 30 second injection of 3M MgCl₂ at a flow rate of 30 μl/min. Values for antibody capture levels and analyte binding levels were obtained from the Report Point Table (Biacore Evaluation Software v3.0, GE Life Sciences). […] Table 16: Experiment A; Table 17: Experiment B.
Target sequence in this assay (Q02763 23-748 limits assumed): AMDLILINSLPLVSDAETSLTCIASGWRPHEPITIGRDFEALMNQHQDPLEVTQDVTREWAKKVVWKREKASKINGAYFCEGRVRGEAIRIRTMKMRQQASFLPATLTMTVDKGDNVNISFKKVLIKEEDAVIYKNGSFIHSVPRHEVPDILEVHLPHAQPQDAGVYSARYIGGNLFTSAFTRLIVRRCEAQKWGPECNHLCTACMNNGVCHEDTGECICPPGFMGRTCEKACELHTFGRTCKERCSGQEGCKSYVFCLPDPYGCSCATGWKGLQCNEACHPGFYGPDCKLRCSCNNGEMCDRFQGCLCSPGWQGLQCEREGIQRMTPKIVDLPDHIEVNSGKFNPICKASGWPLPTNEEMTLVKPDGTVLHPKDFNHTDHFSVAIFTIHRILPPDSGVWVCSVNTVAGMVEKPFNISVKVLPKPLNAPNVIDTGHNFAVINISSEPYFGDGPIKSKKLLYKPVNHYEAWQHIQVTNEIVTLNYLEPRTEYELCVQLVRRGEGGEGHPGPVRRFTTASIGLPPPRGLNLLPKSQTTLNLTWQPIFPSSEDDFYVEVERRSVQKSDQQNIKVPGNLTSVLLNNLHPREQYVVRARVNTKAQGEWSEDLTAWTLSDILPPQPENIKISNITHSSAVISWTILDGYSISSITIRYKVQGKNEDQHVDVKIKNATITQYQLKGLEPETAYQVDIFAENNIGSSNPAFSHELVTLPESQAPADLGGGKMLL

[2] = target: T1, recombinant cyno Tie2 extracellular …; assay: SPR, IgG captured, 37C
Method: as §1

[3] = target: T2, recombinant human Tie2 extracellular …; assay: SPR, IgG captured, 37C; remark: listed apart in the source
Method: as §1
Target sequence in this assay (Q02763 23-748 limits assumed): as above

[4] = target: T1, recombinant cyno Tie2 extracellular …; assay: SPR, IgG captured, 37C
Method: as §1

human Tie2ECD.flag = target: T3, human Tie2ECD.flag (human, UniProt Q02763 23-748); assay: Biacore, hIgG captured, 25C
T3 construct: also called hTie2.flag; not shown: C-terminal Flag tag
T3 sequence (Q02763 23-748 limits assumed): as above
Method: (§2) Monovalent affinities of selected anti-Tie2 hIgGs were determined using a Biacore T200 instrument (GE Life Sciences). Anti-humanFc was covalently immobilized on a Series S CM5 Biacore sensor chip to enable non-covalent capture of anti-Tie2 antibodies and binding of human or rat Tie2ECD.flag was monitored in real time at 25° C. using a multi-cycle kinetics experiment format. Between cycles, the surface was regenerated with 3 M MgCl₂. Monovalent affinities were determined by kinetic analysis, using Biacore Evaluation Software (GE Life Sciences) to fit a 1:1 binding model to the data.

rat Tie2ECD.flag = target: T4, rat Tie2ECD.flag (rat, UniProt A0ABK0L6J5 19-740); assay: Biacore, hIgG captured, 25C
T4 construct: extracellular domain; also called rTie2.flag; not shown: C-terminal Flag tag
Method: as §2

[5] = target: T5, mouse Tie2 full extracellular domain fused to mIgG2a Fc (mouse, UniProt Q02858 23-746); assay: phage ELISA
T5 construct: extracellular domain; also called mFull.Fc; not shown: Fc region of mIgG2a, fused at the C-terminus
Method: Clones from the fourth round were screened for Tie2 binding and specificity by ELISA. Screening ELISAs were carried out by coating the wells of a 96-well microtiter plate with Tie2 protein or irrelevant protein at 65 ul per well (1 ug/ml in coating buffer) at 4° C. overnight. In a 96-tube plate, colonies from the fourth round were grown overnight at 37° C. in 400 ul 2YT media with 50 ug/ml carbenicillin and helper phage K07. The plate was spun down at 3000 rpm for 10 min. 30 ul of the culture supernatant was added with 60 ul of ELISA buffer (PBS with 0.5% BSA and 0.05% Tween20) to the Tie2-coated plate and incubated at room temperature for 1 hr. Plates were washed with PBS—0.05% Tween20 and 100 ul/well of horseradish peroxidase (HRP)-conjugated anti-M13 antibody (1/5000 dilution in PBS plus 0.5% BSA and 0.05% Tween20) at room temperature for 30 min (Sidhu et al., supra). The wells were washed with PBS—0.05% Tween20 prior to 100 ul/well of a 1:1 ratio of 3,3′,5,5′-tetramethylbenzidine (TMB) peroxidase substrate and Peroxidase Solution B (H₂O₂) ((Kirkegaard-Perry Laboratories (Gaithersburg, Md.)) being added per well and incubated for 5 min at room temperature. The reaction was stopped by adding 100 ul 1M phosphoric Acid (H₃PO₄) per well and the OD of wells was determined using a standard ELISA plate reader at 450 nm.

omalizumab = target: T6, omalizumab; assay: phage ELISA
T6 construct: Used as irrelevant coated protein; also called irrelevant Fc-containing protein; not shown: the constant regions

[6] = target: T2, recombinant human Tie2 extracellular …; assay: SPR multi-cycle kinetics, IgG captured, kinetic analysis; human Tie2; kinetic analysis
Method: (§3) Binding to recombinant human and cyno Tie2 was analyzed using a high performance multi-cycle kinetics format with a contact time of 60 seconds, a dissociation time of 60 seconds, a flow rate of 100 μl/minute and Tie2 concentrations of 5 μM, 2.5 μM, 1.25 μM, 625 nM, 313 nM and 156 nM. Tie2 concentrations of 5 μM, 2.5 μM and 1.25 μM were injected twice. Results were analyzed using Biacore T200 Evaluation Software v3.0 (GE Life Sciences). Results from all three surface densities were analyzed together using the 1:1 Binding model with multiple Rmax and the RI parameter set to zero.

[7] = target: T1, recombinant cyno Tie2 extracellular …; assay: SPR multi-cycle kinetics, IgG captured, kinetic analysis
Method: as §3

[8] = target: T2, recombinant human Tie2 extracellular …; assay: as above
Method: Binding to 300 nM and 1500 nM recombinant Tie2 was analyzed at 37° C. using a Single Cycle Kinetics method with a contact time of 60 seconds, a dissociation time of 120 seconds and a flow rate of 50 μl/min. Between cycles, the surface was regenerated by a 30 second injection of 3M MgCl₂ at a flow rate of 30 μl/min. Values for antibody capture levels and analyte binding levels were obtained from the Report Point Table (Biacore Evaluation Software v3.0, GE Life Sciences). […] Table 16: Experiment A; Table 17: Experiment B.
as §3

[9] = target: T1, recombinant cyno Tie2 extracellular …; assay: SPR multi-cycle kinetics, IgG captured, kinetic analysis; cyno Tie2; kinetic analysis
Method: as §3

[10] = target: T2, recombinant human Tie2 extracellular …; assay: SPR, IgG captured, steady state analysis
Method: as §3

[11] = target: T1, recombinant cyno Tie2 extracellular …; assay: SPR, IgG captured, steady state analysis
Method: as §3

| Binder | Normalized Binding Signal, 300 nM [1] | Normalized Binding Signal, 1500 nM [1] | Normalized Binding Signal, 300 nM [2] | Normalized Binding Signal, 1500 nM [2] | Normalized Binding Signal, 300 nM [3] | Normalized Binding Signal, 1500 nM [3] | Normalized Binding Signal, 300 nM [4] | Normalized Binding Signal, 1500 nM [4] | Kd (human Tie2ECD.flag) | Kd (rat Tie2ECD.flag) | binding result [5] | binding result (omalizumab) | other results |
| --- | --- | --- | --- | --- | --- | --- | --- | --- | --- | --- | --- | --- | --- |
| Tie2.38 (antibody, IgG1, V domains shown, hIgG1 in later assays; also called Ab38) VH: EVQLVESGGGLVQPGGSLRLSCAASGFTFSNSAIHWVRQAPGKGLEWVASITPYNGYTYYADSVKGRFTISADTSKNTAYLQMNSLRAEDTAVYYCARRQSYSYVMDYWGQGTLVTVSS VL: DIQMTQSPSSLSASVGDRVTITCRASQDVSTAVAWYQQKPGKAPKLLIYSASFLYSGVPSRFSGSGSGTDFTLTISSLQPEDFATYYCQQSYTTPPTFGQGTKVEIKR |  |  |  |  |  |  |  |  | 376 nM | 2200 nM | binds | no binding |  |
| Tie2.1.M100cF (antibody, IgG1, V domains shown, hIgG1 in the SPR and binning assays) VH: EVQLVESGGGLVQPGGSLRLSCAASGFTFSNTDISWVRQAPGKGLEWVGRISPSDGNTYYADSVKGRFTISADTSKNTAYLQMNSLRAEDTAVYYCARRTRWASWAFDYWGQGTLVTVSS VL: DIQMTQSPSSLSASVGDRVTITCRASQDVSTAVAWYQQKPGKAPKLLIYSASFLYSGVPSRFSGSGSGTDFTLTISSLQPEDFATYYCQQSYTTPPTFGQGTKVEIK | 0.16 | 0.48 | 0.14 | 0.46 | 0.14 | 0.44 | 0.12 | 0.42 |  |  |  |  | Kd [6]: 2000 nM; koff [7]: 0.37 s⁻¹; kon [7]: 190000 M⁻¹ s⁻¹; koff [8]: 0.39 s⁻¹; kon [8]: 220000 M⁻¹ s⁻¹; Kd [9]: 2000 nM; Kd [10]: 2000 nM; Kd [11]: 2000 nM |
| Tie2.33 (antibody, IgG1, V domains shown, hIgG1 in later assays; also called Ab33; T2.33) VH: EVQLVESGGGLVQPGGSLRLSCAASGFTFSGSWISWVRQAPGKGLEWVARINPYDGNTYYADSVKGRFTISADTSKNTAYLQMNSLRAEDTAVYYCARNNRFPTWFDYWGQGTLVTVSS VL: DIQMTQSPSSLSASVGDRVTITCRASQDVSTAVAWYQQKPGKAPKLLIYSASFLYSGVPSRFSGSGSGTDFTLTISSLQPEDFATYYCQQSYTTPPTFGQGTKVEIKR |  |  |  |  |  |  |  |  |  |  | binds | no binding |  |

Now from value to binder, other results behind:

| Normalized Binding Signal, 300 nM [1] | Normalized Binding Signal, 1500 nM [1] | Normalized Binding Signal, 300 nM [2] | Normalized Binding Signal, 1500 nM [2] | Normalized Binding Signal, 300 nM [3] | Normalized Binding Signal, 1500 nM [3] | Normalized Binding Signal, 300 nM [4] | Normalized Binding Signal, 1500 nM [4] | Kd (human Tie2ECD.flag) | Kd (rat Tie2ECD.flag) | binding result [5] | binding result (omalizumab) | Binder | other results |
| --- | --- | --- | --- | --- | --- | --- | --- | --- | --- | --- | --- | --- | --- |
| 0.15 | 0.47 | 0.13 | 0.45 | 0.15 | 0.46 | 0.13 | 0.44 |  |  |  |  | Tie2.1.M100cY (antibody, IgG1, name in Kabat numbering, V domains shown, hIgG1) VH: EVQLVESGGGLVQPGGSLRLSCAASGFTFSNTDISWVRQAPGKGLEWVGRISPSDGNTYYADSVKGRFTISADTSKNTAYLQMNSLRAEDTAVYYCARRTRWASWAYDYWGQGTLVTVSS VL: DIQMTQSPSSLSASVGDRVTITCRASQDVSTAVAWYQQKPGKAPKLLIYSASFLYSGVPSRFSGSGSGTDFTLTISSLQPEDFATYYCQQSYTTPPTFGQGTKVEIKR |  |
|  |  |  |  |  |  |  |  | 155 nM | 57 nM |  |  | Tie2.34 (antibody, IgG1, V domains shown, hIgG1 in Biacore; also called Ab34) VH: EVQLVESGGGLVQPGGSLRLSCAASGFTFSDTYIHWVRQAPGKGLEWVAVIYPDNGATYYADSVKGTYYADSVKGRFTISADTSKNTAYLQMNSLRAEDTAVYYCAREFACARCVYGMDYWGQGTLVTVSS VL: DIQMTQSPSSLSASVGDRVTITCRASQDVSTAVAWYQQKPGKAPKLLIYSASFLYSGVPSRFSGSGSGTDFTLTISSLQPEDFATYYCQQSYTTPPTFGQGTKVEIKR |  |
